B1: Ras GTPase-activating protein 1, residues 281 to 341; numbered along this chain, P20936 (parent)
chain: RRRVRAILPYTKVPDTDEISFLKGDMFIVHNELEDGWMWVTNLRTDEQGLIVEDLVEEVGR
B2: Metastasis-associated protein MTA3, residues 265 to 317; numbered along this chain, Q9BTC8 (parent)
chain: RDEMEEWSASEASLFEEALEKYGKDFNDIRQDFLPWKSLTSIIEYYYMWKTTD

± gives the uncertainty stated by the source.

The variants in the first data set derive from B1. Put plainly: abundance fitness (aPCA) (normalised: wild type 0, dead -1); higher = more abundant; growth selection in yeast, the domain comes from the species named. Conditions: Homo sapiens.
On to RRRVRAILPYTKVPDTDEISFLKGDMFIVHNELEDGWMWVTNLRTDEQGLIVEDLVEEVGN [R61N], for which the abundance fitness is 0.02 ± 0.033. As for RRRVRAILPYTKVPDTDEISFLKGDMFIVHNELEDGWMWVTNLRTDEQGLIVEDLVEEVHR [G60H], the abundance fitness is -0.054 ± 0.074.

For the variant RRRVRAILPYTKVPDTDEISFLKGDMFIVHNELEDGWMWVTNLRTDEQGLIVEDLVEEVPR [G60P], the abundance fitness is -0.023 ± 0.16. Consider RRRVRAILPYTKVPDTDEISFLKGDMFIVHNELEDGWMWVTNLRTDEQGLIVEDLVEEVFR [G60F], for which the abundance fitness was -0.211 ± 0.07.

Take RRRVRAILPYTKVPDTDEISFLKGDMFIVHNELEDGWMWVTNLRTDEQGLIVEDLVEEVIR [G60I]: the abundance fitness was -0.299 ± 0.11. With RRRVRAILPYTKVPDTDEISFLKGDMFIVHNELEDGWMWVTNLRTDEQGLIVEDLVEEVQR [G60Q], the abundance fitness was -0.328 ± 0.18. Same read-out and setting: the figure for RRRVRAILPYTKVPDTDEISFLKGDMFIVHNELEDGWMWVTNLRTDEQGLIVEDLVEEVDR [G60D] is -0.063 ± 0.057. As to RRRVRAILPYTKVPDTDEISFLKGDMFIVHNELEDGWMWVTNLRTDEQGLIVEDLVEEVER [G60E], the abundance fitness was determined as 0.003 ± 0.25. Same read-out and setting: the figure for RRRVRAILPYTKVPDTDEISFLKGDMFIVHNELEDGWMWVTNLRTDEQGLIVEDLVEEVSR [G60S] is -0.068 ± 0.05; for RRRVRAILPYTKVPDTDEISFLKGDMFIVHNELEDGWMWVTNLRTDEQGLIVEDLVEEVLR [G60L] it is -0.227 ± 0.12.

As for RRRVRAILPYTKVPDTDEISFLKGDMFIVHNELEDGWMWVTNLRTDEQGLIVEDLVEEVNR [G60N], the abundance fitness was -0.006 ± 0.065. On to RRRVRAILPYTKVPDTDEISFLKGDMFIVHNELEDGWMWVTNLRTDEQGLIVEDLVEEVCR [G60C], for which the abundance fitness is -0.081 ± 0.067. In the case of RRRVRAILPYTKVPDTDEISFLKGDMFIVHNELEDGWMWVTNLRTDEQGLIVEDLVEEVAR [G60A], the abundance fitness was -0.071 ± 0.12. For RRRVRAILPYTKVPDTDEISFLKGDMFIVHNELEDGWMWVTNLRTDEQGLIVEDLVEEVYR [G60Y], the abundance fitness is -0.058 ± 0.1. Take RRRVRAILPYTKVPDTDEISFLKGDMFIVHNELEDGWMWVTNLRTDEQGLIVEDLVEEVMR [G60M]: the abundance fitness is -0.289 ± 0.12.

The next data set covers variants of B2. Described as above. Conditions: Homo sapiens.
With RDKMEEWSASEASLFEEALEKYGKDFNDIRQDFLPWKSLTSIIEYYYMWKTTD [E3K], the abundance fitness was 0.566 ± 0.19. Same read-out and setting: the figure for RDAMEEWSASEASLFEEALEKYGKDFNDIRQDFLPWKSLTSIIEYYYMWKTTD [E3A] is -0.342 ± 0.14; for RDGMEEWSASEASLFEEALEKYGKDFNDIRQDFLPWKSLTSIIEYYYMWKTTD [E3G] it is -0.475 ± 0.15; for RDDMEEWSASEASLFEEALEKYGKDFNDIRQDFLPWKSLTSIIEYYYMWKTTD [E3D] it is -0.006 ± 0.079. Consider PDEMEEWSASEASLFEEALEKYGKDFNDIRQDFLPWKSLTSIIEYYYMWKTTD [R1P], for which the abundance fitness is -0.529 ± 0.34. Take CDEMEEWSASEASLFEEALEKYGKDFNDIRQDFLPWKSLTSIIEYYYMWKTTD [R1C]: the abundance fitness worked out at 0.057 ± 0.077.

As for ADEMEEWSASEASLFEEALEKYGKDFNDIRQDFLPWKSLTSIIEYYYMWKTTD [R1A], the abundance fitness was 0.304 ± 0.35. With KDEMEEWSASEASLFEEALEKYGKDFNDIRQDFLPWKSLTSIIEYYYMWKTTD [R1K], the abundance fitness was 0.028 ± 0.26.

As for WDEMEEWSASEASLFEEALEKYGKDFNDIRQDFLPWKSLTSIIEYYYMWKTTD [R1W], the abundance fitness was -0.044 ± 0.26. Consider SDEMEEWSASEASLFEEALEKYGKDFNDIRQDFLPWKSLTSIIEYYYMWKTTD [R1S], for which the abundance fitness was -0.259 ± 0.2. GDEMEEWSASEASLFEEALEKYGKDFNDIRQDFLPWKSLTSIIEYYYMWKTTD [R1G]: the abundance fitness turned out to be 0.335 ± 0.17.

Take MDEMEEWSASEASLFEEALEKYGKDFNDIRQDFLPWKSLTSIIEYYYMWKTTD [R1M]: the abundance fitness stood at 0.11 ± 0.23. On the same count and under the same terms, the figure for FDEMEEWSASEASLFEEALEKYGKDFNDIRQDFLPWKSLTSIIEYYYMWKTTD [R1F] is 0.372 ± 0.15; for VDEMEEWSASEASLFEEALEKYGKDFNDIRQDFLPWKSLTSIIEYYYMWKTTD [R1V] it is 0.231 ± 0.4. With TDEMEEWSASEASLFEEALEKYGKDFNDIRQDFLPWKSLTSIIEYYYMWKTTD [R1T], the abundance fitness turned out to be 0.299 ± 0.16. Same read-out and setting: in the case of NDEMEEWSASEASLFEEALEKYGKDFNDIRQDFLPWKSLTSIIEYYYMWKTTD [R1N] it was 0.378 ± 0.14; in that of LDEMEEWSASEASLFEEALEKYGKDFNDIRQDFLPWKSLTSIIEYYYMWKTTD [R1L], -0.098 ± 0.11.

Consider IDEMEEWSASEASLFEEALEKYGKDFNDIRQDFLPWKSLTSIIEYYYMWKTTD [R1I], for which the abundance fitness came out at 0.025 ± 0.23. Take REEMEEWSASEASLFEEALEKYGKDFNDIRQDFLPWKSLTSIIEYYYMWKTTD [D2E]: the abundance fitness worked out at 0.199 ± 0.076. For RGEMEEWSASEASLFEEALEKYGKDFNDIRQDFLPWKSLTSIIEYYYMWKTTD [D2G], the abundance fitness came to 0.204 ± 0.084.

Turning to RNEMEEWSASEASLFEEALEKYGKDFNDIRQDFLPWKSLTSIIEYYYMWKTTD [D2N], the abundance fitness was 0.058 ± 0.23. In the case of RMEMEEWSASEASLFEEALEKYGKDFNDIRQDFLPWKSLTSIIEYYYMWKTTD [D2M], the abundance fitness came to 0.033 ± 0.22. With RAEMEEWSASEASLFEEALEKYGKDFNDIRQDFLPWKSLTSIIEYYYMWKTTD [D2A], the abundance fitness amounted to 0.033 ± 0.15.

Take RTEMEEWSASEASLFEEALEKYGKDFNDIRQDFLPWKSLTSIIEYYYMWKTTD [D2T]: the abundance fitness came out at 0.271 ± 0.17. RSEMEEWSASEASLFEEALEKYGKDFNDIRQDFLPWKSLTSIIEYYYMWKTTD [D2S]: the abundance fitness was -0.249 ± 0.23. For RWEMEEWSASEASLFEEALEKYGKDFNDIRQDFLPWKSLTSIIEYYYMWKTTD [D2W], the abundance fitness was -0.323 ± 0.28.

For the variant RREMEEWSASEASLFEEALEKYGKDFNDIRQDFLPWKSLTSIIEYYYMWKTTD [D2R], the abundance fitness is -0.285 ± 0.15. As for RKEMEEWSASEASLFEEALEKYGKDFNDIRQDFLPWKSLTSIIEYYYMWKTTD [D2K], the abundance fitness worked out at 0.523 ± 0.093.

Take RFEMEEWSASEASLFEEALEKYGKDFNDIRQDFLPWKSLTSIIEYYYMWKTTD [D2F]: the abundance fitness was -0.133 ± 0.47.

For the variant RHEMEEWSASEASLFEEALEKYGKDFNDIRQDFLPWKSLTSIIEYYYMWKTTD [D2H], the abundance fitness was -0.296 ± 0.072. Turning to RPEMEEWSASEASLFEEALEKYGKDFNDIRQDFLPWKSLTSIIEYYYMWKTTD [D2P], the abundance fitness is -0.617 ± 0.49.

The values are drawn from the Human Domainome abundance scans (Beltran et al. 2025).
